Data from patent US11419921B2, “Methods of treating neurological disorders” (EnClear Therapies, Inc., priority 2018, dated 2022).

System: (GR)10
Experiment: Cleavage of (GR)10 by enzymes in solution (PBS with CaCl2 and MgCl2), LC/MS of GR repeats
Type: biochemical
Conditions: (GR)10 50 μM
Procedure: • (GR)10 dipeptide (also (GR)8, (GR)6, (GR)4, (GR)2) were synthetized by solid-phase synthesis by CanPeptide; All peptides are uncapped and supplied lyophilized with TFA as counter ions. Purity was always above 95%. • Buffer: PBS buffer containing CaCl2 and MgCl2. • Stock solution of enzyme (e.g., 10 mg/mL) (prepared per manufacturer instructions) in PBS. Activators added as necessary. • Working solution of protein of the desired concentration (e.g., 100 μg/mL) prepared immediately before use by diluting the stock solution (e.g., 5 μL of 10 mg/mL stock solution) in PBS buffer (e.g., in 495 μL of PBS). Exemplary Procedure Using 50 μM Concentrations of (GR)10
25 μL of a 100 μM solution of (GR)10 was added to each well of a 96-well plate. 25 μL of a solution of enzyme (two times the desired final enzyme concentration) was added, and the plates were incubated at room temperature. At the specified time points (5 minutes, 10 minutes, 30 minutes, 60 minutes, and 180 minutes) 2.5 μL of a 10% TFA solution were added to stop the reaction. For the time 0 min well, the TFA was added to the well before addition of the enzyme. After last time point, all samples were further diluted with 150 μL of dilution solution. The quenched reaction mixtures were analyzed by LC/MS to determine the concentration of GR repeats of different lengths.
The chromatography and mass spectrometry conditions utilized are shown in Table 2 and Table 3, respectively.

- (GR)1 concentration (enzyme 0.25 μg/mL, 0 min): BLQ
- (GR)2 concentration (enzyme 0.25 μg/mL, 0 min): BLQ
- (GR)4 concentration (enzyme 0.25 μg/mL, 0 min): BLQ
- (GR)6 concentration (enzyme 0.25 μg/mL, 0 min): BLQ
- (GR)8 concentration (enzyme 0.25 μg/mL, 0 min): 0.3 µM
- (GR)10 concentration (enzyme 0.25 μg/mL, 0 min): 44.9 µM
- (GR)1 concentration (enzyme 0.25 μg/mL, 2.5 min): BLQ
- (GR)2 concentration (enzyme 0.25 μg/mL, 2.5 min): BLQ
- (GR)4 concentration (enzyme 0.25 μg/mL, 2.5 min): BLQ
- (GR)6 concentration (enzyme 0.25 μg/mL, 2.5 min): BLQ
- (GR)8 concentration (enzyme 0.25 μg/mL, 2.5 min): BLQ
- (GR)10 concentration (enzyme 0.25 μg/mL, 2.5 min): 55.8 µM
- (GR)1 concentration (enzyme 0.25 μg/mL, 5 min): 0.1 µM
- (GR)2 concentration (enzyme 0.25 μg/mL, 5 min): BLQ
- (GR)4 concentration (enzyme 0.25 μg/mL, 5 min): BLQ
- (GR)6 concentration (enzyme 0.25 μg/mL, 5 min): BLQ
- (GR)8 concentration (enzyme 0.25 μg/mL, 5 min): BLQ
- (GR)10 concentration (enzyme 0.25 μg/mL, 5 min): 54.4 µM
- (GR)1 concentration (enzyme 0.25 μg/mL, 10 min): 0.2 µM
- (GR)2 concentration (enzyme 0.25 μg/mL, 10 min): BLQ
- (GR)4 concentration (enzyme 0.25 μg/mL, 10 min): BLQ
- (GR)6 concentration (enzyme 0.25 μg/mL, 10 min): BLQ
- (GR)8 concentration (enzyme 0.25 μg/mL, 10 min): BLQ
- (GR)10 concentration (enzyme 0.25 μg/mL, 10 min): 50.3 µM
- (GR)1 concentration (enzyme 0.25 μg/mL, 30 min): 0.6 µM
- (GR)2 concentration (enzyme 0.25 μg/mL, 30 min): 0.2 µM
- (GR)4 concentration (enzyme 0.25 μg/mL, 30 min): 0.1 µM
- (GR)6 concentration (enzyme 0.25 μg/mL, 30 min): BLQ
- (GR)8 concentration (enzyme 0.25 μg/mL, 30 min): 0.3 µM
- (GR)10 concentration (enzyme 0.25 μg/mL, 30 min): 55.1 µM
- (GR)1 concentration (enzyme 0.25 μg/mL, 60 min): 1.0 µM
- (GR)2 concentration (enzyme 0.25 μg/mL, 60 min): 0.3 µM
- (GR)4 concentration (enzyme 0.25 μg/mL, 60 min): BLQ
- (GR)6 concentration (enzyme 0.25 μg/mL, 60 min): BLQ
- (GR)8 concentration (enzyme 0.25 μg/mL, 60 min): 0.3 µM
- (GR)10 concentration (enzyme 0.25 μg/mL, 60 min): 56.3 µM
- (GR)1 concentration (enzyme 10 μg/mL, 0 min): BLQ
- (GR)2 concentration (enzyme 10 μg/mL, 0 min): BLQ
- (GR)4 concentration (enzyme 10 μg/mL, 0 min): BLQ
- (GR)6 concentration (enzyme 10 μg/mL, 0 min): BLQ
- (GR)8 concentration (enzyme 10 μg/mL, 0 min): BLQ
- (GR)10 concentration (enzyme 10 μg/mL, 0 min): 49.4 µM
- (GR)1 concentration (enzyme 10 μg/mL, 2.5 min): 3.0 µM
- (GR)2 concentration (enzyme 10 μg/mL, 2.5 min): 0.5 µM
- (GR)4 concentration (enzyme 10 μg/mL, 2.5 min): 0.6 µM
- (GR)6 concentration (enzyme 10 μg/mL, 2.5 min): 0.5 µM
- (GR)8 concentration (enzyme 10 μg/mL, 2.5 min): 0.6 µM
- (GR)10 concentration (enzyme 10 μg/mL, 2.5 min): 55.4 µM
- (GR)1 concentration (enzyme 10 μg/mL, 5 min): 5.3 µM
- (GR)2 concentration (enzyme 10 μg/mL, 5 min): 0.8 µM
- (GR)4 concentration (enzyme 10 μg/mL, 5 min): 1.3 µM
- (GR)6 concentration (enzyme 10 μg/mL, 5 min): 0.8 µM
- (GR)8 concentration (enzyme 10 μg/mL, 5 min): 1.3 µM
- (GR)10 concentration (enzyme 10 μg/mL, 5 min): 48.8 µM
- (GR)1 concentration (enzyme 10 μg/mL, 10 min): 11.9 µM
- (GR)2 concentration (enzyme 10 μg/mL, 10 min): 1.4 µM
- (GR)4 concentration (enzyme 10 μg/mL, 10 min): 2.9 µM
- (GR)6 concentration (enzyme 10 μg/mL, 10 min): 2.2 µM
- (GR)8 concentration (enzyme 10 μg/mL, 10 min): 2.6 µM
- (GR)10 concentration (enzyme 10 μg/mL, 10 min): 44.1 µM
- (GR)1 concentration (enzyme 10 μg/mL, 30 min): 44.8 µM
- (GR)2 concentration (enzyme 10 μg/mL, 30 min): 5.7 µM
- (GR)4 concentration (enzyme 10 μg/mL, 30 min): 9.5 µM
- (GR)6 concentration (enzyme 10 μg/mL, 30 min): 5.2 µM
- (GR)8 concentration (enzyme 10 μg/mL, 30 min): 3.5 µM
- (GR)10 concentration (enzyme 10 μg/mL, 30 min): 16.6 µM
- (GR)1 concentration (enzyme 10 μg/mL, 60 min): 64.1 µM
- (GR)2 concentration (enzyme 10 μg/mL, 60 min): 10.1 µM
- (GR)4 concentration (enzyme 10 μg/mL, 60 min): 13.6 µM
- (GR)6 concentration (enzyme 10 μg/mL, 60 min): 6.6 µM
- (GR)8 concentration (enzyme 10 μg/mL, 60 min): 5.7 µM
- (GR)10 concentration (enzyme 10 μg/mL, 60 min): 10.6 µM
B1: Proteinase K: protease that cleaves peptide bonds adjacent to the carboxylic group of aliphatic and aromatic amino acids (protein)
chain: AAQTNAPWGLARISSTSPGTSTYYYDESAGQGSCVYVIDTGIEASHPEFEGRAQMVKTYYYSSRDGNGHGTHCAGTVGSRTYGVAKKTQLFGVKVLDDNGSGQYSTIIAGMDFVASDKNNRNCPKGVVASLSLGGGYSSSVNSAAARLQSSGVMVAVAAGNNNADARNYSPASEPSVCTVGASDRYDRRSSFSNYGSVLDIFGPGTSILSTWIGGSTRSISGTSMATPHVAGLAAYLMTLGKTTAASACRYIADTANKGDLSNIPFGTVNLLAYNNYQA
